Source: US20200277350A1 (DINGFU BIOTARGET, published 2020)

Biological target: T1, Human IL10R1 (R&D, 9100-R1-050) (human, UniProt Q13651 22-235)
T1 construct: Bought protein coated on the ELISA plate; also called hIL10R1; human IL10R1 proteins
T1 sequence (looked up): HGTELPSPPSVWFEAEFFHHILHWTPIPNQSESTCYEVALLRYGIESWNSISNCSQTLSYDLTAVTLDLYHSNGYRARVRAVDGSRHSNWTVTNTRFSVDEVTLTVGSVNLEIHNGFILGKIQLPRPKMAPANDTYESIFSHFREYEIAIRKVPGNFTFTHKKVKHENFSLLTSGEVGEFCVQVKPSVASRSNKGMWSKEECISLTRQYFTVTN
Assay: ELISA, plate coated with human IL10R1, detection with goat anti-hIgG-HRP
Protocol: Human IL10R1 (R&D, 9100-R1-050) was diluted to 5 μg/mL with coating buffer (50 mM Na₂CO₃, NaHCO₃ pH 9.6), 100 μL/well, overnight at 4° C. After washing, the plates were sealed with 3% BSA-PBS for 1 h at 37° C. Then, all samples were respectively diluted from 10000 ng/mL and were diluted 3-fold to a total of 11 concentrations, with the diluent (1% BSA-PBS) as a control, incubated at 37° C. for 2 h. After washing, Goat anti-hIgG-HRP (Sigma, A0170) was added and incubated at 37° C. for 1 h. The soluble one-component TMB substrate developing solution was added, and the developing was performed in dark at room temperature for 5-10 min. 2 N H₂SO₄ 50 μL/well was added to terminate the color development reaction.

B1: Reverse-(IL10)2-Fc9 (Fc fusion)
chain 1: EPKSSDKTHTCPPCPAPELLGGPSVFLFPPKPKDTLMISRTPEVTCVVVDVSHEDPEVKFNWYVDGVEVHNAKTKPREEQYNSTYRVVSVLTVLHQDWLNGKEYKCKVSNKALPAPIEKTISKAKGQPREPQVYTLPPSRDELTKNQVSLSCGVKGFYPSDIAVEWESNGQPENNYKTTPPVLDSDGSFKLASKLTVDKSRWQQGNVFSCSVMHEALHNHYTQKSLSLSPGKGGGGSGGGGSGGGGSSPGQGTQSENSCTHFPGNLPNMLRDLRDAFSRVKTFFQMKDQLDNLLLKESLLEDFKGYLGCQALSEMIQFYLEEVMPQAENQDPDIKAHVNSLGENLKTLRLRLRRCHRFLPCENKSKAVEQVKNAFNKLQEKGIYKAMSEFDIFINYIEAYMTMKIRNGGGGSGGGGSGGGGSSPGQGTQSENSCTHFPGNLPNMLRDLRDAFSRVKTFFQMKDQLDNLLLKESLLEDFKGYLGCQALSEMIQFYLEEVMPQAENQDPDIKAHVNSLGENLKTLRLRLRRCHRFLPCENKSKAVEQVKNAFNKLQEKGIYKAMSEFDIFINYIEAYMTMKIRN
chain 2: DKTHTCPPCPAPELLGGPSVFLFPPKPKDTLMISRTPEVTCVVVDVSHENPEVKFNWYVDGVEVHNAKTKPREEQYNSTYRVVSVLTVLHQDWLNGKEYKCKVSNKALPAPIEKTISKAKGQPREPQVYTLPPSRDELTKNQVSLWCLVKGFYPSDIAVEWESNGQPENNYKTTPPVLDSDGSFFLYSALTVDKSRWQQGNVFSCSVMHEALHNHYTQKSLSLSPGK
notes: also called proteinaceous heterodimer of Group C
B1 showed an EC50 of 0.0123 µg/mL.
